One molecule from patent US20030129703A1 (Regeneron, published 2003) can be followed below.

The target in one assay is T1, Fc-tagged human noggin (human, UniProt Q13253 28-232).
T1 construct: Secreted protein; also called hNG-Fc; not shown: Fc domain of human IgG1 (BspEI-NotI human IgG1 fragment), hinge and Fc
T1 sequence: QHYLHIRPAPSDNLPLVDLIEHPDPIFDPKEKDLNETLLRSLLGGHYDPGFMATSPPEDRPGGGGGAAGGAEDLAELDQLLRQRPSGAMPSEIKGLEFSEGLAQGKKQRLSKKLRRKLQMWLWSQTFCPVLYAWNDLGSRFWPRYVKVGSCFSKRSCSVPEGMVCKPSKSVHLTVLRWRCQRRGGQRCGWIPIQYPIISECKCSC
Put plainly: ELISA on plate-coated hBMP4. On the procedure:
Unbound hBMP4 was removed by washing four times with PBS, and the plates were blocked with 1% BSA in PBS. […] After a 1 hour incubation unbound anti-Fc●AP was removed by washing four times with TBS+0.1% Tween and then Alkaline Phosphatase substrate (para-nitrophenyl phosphate; Sigma) was added. Alkaline Phosphatase converts this substrate to a product whose production can be monitored by measuring Absorbance at 405 nm.
To determine if this hNG mutein was active, its ability to bind to hBMP4 was compared with that of hNG-Fc, which binds human Bone Morphogenetic Protein 4 (hBMP4) with affinity essentially identical to that of untagged hNG. An ELISA format assay where hBMP4 is captured on the surface of an ELISA plate was used to compare the two proteins.
(ELISA stands for enzyme-linked immunosorbent assay.)

Another assay deals with T2, hNGΔ133-179Fc (human, UniProt Q13253 28-232).
T2 construct: not shown: peptide bridge to the Fc; Fc domain of human IgG1
T2 sequence: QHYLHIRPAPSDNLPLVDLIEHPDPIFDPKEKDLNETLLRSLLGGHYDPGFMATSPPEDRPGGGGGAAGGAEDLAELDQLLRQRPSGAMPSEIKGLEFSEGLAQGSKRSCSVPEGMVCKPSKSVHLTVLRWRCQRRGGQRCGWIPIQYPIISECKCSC
In words: binding to BMP4; assay not detailed.

B1: human Bone Morphogenetic Protein 4 (ligand, UniProt P12644 293-408, looked up)
chain: SPKHHSQRARKKNKNCRRHSLYVDFSDVGWNDWIVAPPGYQAFYCHGDCPFPLADHLNSTNHAIVQTLVNSVNSSIPKACCVPTELSAISMLYLDEYDKVVLKNYQEMVVEGCGCR
notes: also called hBMP4; BMP4
With B1, the binding result was “binds” with Fc-tagged human noggin and “no binding” with hNGΔ133-179Fc.
